Measured values from publication PMC9170038, “Crowdsourced RNA design discovers diverse, reversible, efficient, self-contained molecular switches”.

B1: Eterna 6388885 (Inverted Exclusion NG 1) (ssRNA)
RNA: UUAUUUUUACAGAAGGUUUAAUAAUAUGUAUGAGAAGGAUAUGUAACAUGAGGAUCACCCAUGUUUUAUUUAUAUGAGGAUCAU
B2: Eterna 10350 (Sensor for hsa-mir-208a) (ssRNA)
RNA: GCCCAUAGUAUAUGGAUACAAGCUUUUUGACAUGAGGAUCACCCAUGUACUCGUCUUAUGUGCAGUCCGUAGACUGC
B3: Eterna 7691660 (Exclusion - Tryptophan B) (ssRNA)
RNA: AGAUUCGACACGGCCGCCACUUGUGGUGGAUUAUCCUAUGUAAGACAUGAGUGAUGUUCAUGUACAAGGACCGGGUGUUGAGUCU
B4: Eterna 11304 (Exclusion 2) (ssRNA)
RNA: UCGGCGCGAGGAUAUACGGUUGCUUGGUAGGGUCGUGGCGUACAUGAGGAUCACCCAUGUAGAAGGCGCGCCGC
B5: Eterna 7748347 (Exclusion - Theophylline B) (ssRNA)
RNA: UUUUAGGUAUCUGAUACCAGAGAAAAUAUAUGUAGUGAUGUUAUAUACAAAAUAAUUAAGCUCCCUUGGCAGCAGUUUUAAUUUU
B6: Eterna 7625640 (Exclusion - Theophylline B) (ssRNA)
RNA: UAUAUUGUGAUGGAUACCAGCAGAGAAAACGUUUAUCCUAACAUGAGGAUCACCCAUGUAUGCCCUUGGCAGCUGUUGUGGUAUA
B7: Eterna 7678688 (Same State - Tryptophan A) (ssRNA)
RNA: AACACUCUGGGAGUGAUGUUCUCAAAUAACCGAGGACCGGUACGGCCGCCACUCGGAAAAGAGUGAGUCCUACGAAAAGUAGGAC
B8: Eterna 7619949 (Exclusion - Theophylline A) (ssRNA)
RNA: CGCAACCCUAAGGGAUUGUGGUUAUUAGAUACCAGUAUGAUGCAAUACCCUUGGCAGCUAAUACAUGAGGAUCACCCAUGUUGCG
B9: Eterna 6122884 (Exclusion NG 3) (ssRNA)
RNA: CGAUAACAUAGUUAUCCGUAACGGACAUGAGGAUCACCCAUGUAGGAUAUGUUACUAAACUAGUAACAGAAGGACAUGAGUCUU
B10: Eterna 5859795 (Exclusion NG 3) (ssRNA)
RNA: ACAUGAGGAUCACCCAUGUAAUGAAGGGUACUAUACUAAACGUAGGAUAUCGAUGUAAGAUUGUACGAGAAGGACGAUUGCCUU
B11: Eterna 1281 (Exclusion - Tryptophan B) (ssRNA)
RNA: GAGAAUCUCACGGCCGCCACUCACCUGUUAAUUGACAUCGACGGCCUCGACCAGUGAUGUUGUGUGAGGACCGGGUGUCUCGUGU
B12: Eterna 7653720 (Same State - Theophylline B) (ssRNA)
RNA: UGUAUGUGAUUUGAUACCAGACCAGCUGGUGGUACCUGAGGAACACCCAGGUAGGUUUGGGUCCCUUGGCAGCAAAUCGCAUACU
B13: Eterna 7689816 (Same State - Arginine A) (ssRNA)
RNA: GCGAACAUUCGCAGUGAUGUUGCGACGGAAGGAGCGCGUGAAAACGCAGGUAGGUCGCCGACAUACUUAAUUUUACAGUGUUCGC
B14: Eterna 7612252 (Exclusion - Arginine B) (ssRNA)
RNA: ACGUAAUGCAGAAGGAGCGUCUGAUUUUAACAUGAGGAUCACCCAUGUAAUAUUUAUGGUAGACAGGUAGGUCGCUGAAGUACGA
B15: Eterna 1103 (Exclusion - Theophylline A) (ssRNA)
RNA: AGUGACGAGUGAUGUUCGUGAACACUGGAUACCAGCAGUCUUAUCUGCCCUUGGCAGCCAACGGGAACCGAAUGUUAAGACCUGU
B16: Eterna 6056021 (Exclusion 3) (ssRNA)
RNA: GGGCCCGGAGGAUAUACAUGAGGAUCACCCAUGUAGGGCCCGGGUAUUCCCGGGUUUUGUAGAAGGCCGGGCCC
B17: Eterna 7727526 (Same State - Tryptophan A) (ssRNA)
RNA: GACGGGCAGUGAUGUUGCCGGUCUCUUGGACGAGGACCGGUACGGCCGCCACUCGAUCUGAUGCGAGAAUUGUAUCUUUUAAUAA
B18: Eterna 7616965 (Same State - Arginine A) (ssRNA)
RNA: UACAUGAGGAUCACCCAUGUAUGUAUCGAAGGAGCGCGUGUAAACGCAGGUAGGUCGCGAACAUGAGGAUCACACAUGAGGAUCA
B19: Eterna 6445724 (Inverted Small Loop Same State NG 1) (ssRNA)
RNA: AACCUAAAACAGAAGGCCAGCUACAUGAGGAUCACCCAUGUCGAAUCAUGGAGGAUAUGUUGUAAUUUACUCGCAGAUGAGUGC
B20: Eterna 6433253 (Small Loop Same State NG 3) (ssRNA)
RNA: CGUUUAUAUAUGGGUUUAUAUUAUGAGGAUAUCAAUAUUUAAUACAUGAGGAUCACCCAUGUUACUGAGAAGGCAUAAUUAACG
B21: Eterna 7688897 (Exclusion - Tryptophan B) (ssRNA)
RNA: ACGAUCAUGUCGGCCGCCACUGAGAGUAGUGAUGUUACUUUUAUGUUUUAGUUAUAAUAUUUGAACAGGACCGGGACAUGUUCGU
B22: Eterna 7708488 (Same State - Arginine A) (ssRNA)
RNA: UAUACGAAGCAGUGAUGUUGCUUAUGAGAAGGAGCGCACGAAAGUGCAGGUAGGUCGCUCAGCCAUGUGGACGAAAACGUCCACA
B23: Eterna 7684651 (Exclusion - Tryptophan A) (ssRNA)
RNA: AACUUAAUUUAUAAGCAGUGAUGUUGCUCACGAGGACCGGUACGGCCGCCACUCGAUCGGACUUAGGUCUUCAAUUAUUUCAUUA
B24: Eterna 6391458 (Small Loop Exclusion NG 1) (ssRNA)
RNA: ACAUGUUUUGUAGGAUAUCACUAGUUGUGUUAUAUAUUUGUUAUAAUGUAUUGAGAAGGACAUUUACAUGAGGAUCACCCAUGU
B25: Eterna 7641374 (Exclusion - Arginine A) (ssRNA)
RNA: GACAUGAGGAUCACCCAUGUUUUCUAUGAAGGAGCGUCGGAAAUGACAGGUAGGUCGCAUGGUAGGACUUGUAUCUUGUAUGUAG
B26: Eterna 5987116 (Exclusion 5) (ssRNA)
RNA: UUAGGAUCAGGAUAUGAUGUUUUAAACAUGAGGAUCACCCAUGUAGAUCCUGAUUCAACAUCAGAAGGGAUAAUUU
B27: Eterna 1109 (Exclusion - Theophylline A) (ssRNA)
RNA: UCGGCGGAGUGAUGUUCCUAUGUCCAAGAUACCAGUCUAUGAACGGACCCUUGGCAGCUUCCAUUAGGUUACUAUUUAGACUCAU
B28: Eterna 7769703 (Exclusion - Tryptophan A) (ssRNA)
RNA: AAACAUCACUGGGAGUGAUGUUCUCAGUGACGAGGACCGGUACGGCCGCCACUCGCGAGAGAACUAGUCUAGACUUGACUGCAUU
B29: Eterna 7728774 (Exclusion - Theophylline A) (ssRNA)
RNA: AUCACAGUGAUGUUGUGAUAUGAUUCAGAUACCAGACUAGUGCUAGUCCCUUGGCAGCUGAACUCAGCAGCACCACUAGCACUCU
B30: Eterna 7754737 (Exclusion - Tryptophan A) (ssRNA)
RNA: CGCUUUGCGUCCGGUAGUGAUGUUACCAAGCGAGGACCGGUACGGCCGCCACUCGAGUGACAGACGUACUGGUAUCACCCGCUUU
B31: Eterna 7697880 (Same State - Tryptophan B) (ssRNA)
RNA: AACAGCAAUGCGGCCGCCACUUCGAGGUCAGUGAUGUUGACAGAAUUAAAUAAAGAUCCCAAGAGGAGGACCGGGCAGUGCUGUU

These binders were tested against MS2 coat protein, dlFG mutant (Escherichia phage MS2, UniProt P03612, del68-81insG) (assay: 4 mM Mg2+; no ligand; RNA-MaP array; 100 mM Tris-HCl pH 7.5, 80 mM KCl, 4 mM MgCl2, 0.1 mg/mL BSA, 1 mM DTT, 0.01 mg/mL yeast tRNA, 0.01% Tween-20; protein 1.5 nM to 3 uM; 37 C (Table S3)). Conditions: chain copies: 2; label: tethered by stalled RNA polymerase.

Compared with B1, B2 is 2.5-fold higher in Kd: 10.7 nM for the first, 27.2 nM for the second. The first binds more tightly here.

Going from B3 to B4, the Kd falls from over 3000 nM to 17.3 nM. The second binds more tightly here.

Going from B5 to B6, the Kd falls from over 3000 nM to 44.2 nM. The second binds more tightly here.

Going from B7 to B8, the Kd falls from over 3000 nM to 13.8 nM. The second binds more tightly here.

B9 and B10 are within 1.5-fold of each other in Kd: 37.2 nM for the first, 45.5 nM for the second.

Compared with B11, B12 is lower in Kd: over 3000 nM for the first, 35.5 nM for the second.

Going from B13 to B14, the Kd falls from over 3000 nM to 15.4 nM.

Compared with B15, B16 is lower in Kd: over 3000 nM for the first, 15 nM for the second. The second binds more tightly here.

Compared with B17, B18 is lower in Kd: over 3000 nM for the first, 24.5 nM for the second.

Going from B19 to B20, the Kd falls from 35.5 nM to 12.1 nM (2.9-fold). The second binds more tightly here.

B21 and B22 cannot be ordered by Kd: over 3000 nM for the first, over 3000 nM for the second.

Going from B23 to B24, the Kd falls from over 3000 nM to 8.7 nM.

B25 and B26 are within 1.5-fold of each other in Kd: 14.5 nM for the first, 15.1 nM for the second.

B27 and B28 cannot be ordered by Kd: over 3000 nM for the first, over 3000 nM for the second.

B29 and B30 cannot be ordered by Kd: over 3000 nM for the first, over 3000 nM for the second.

B31 showed a Kd of over 3000 nM.
